{"source": "patent US10233437B2", "about": "“Hypochlorite resistant cyanuric acid hydrolases and methods of use thereof” (REGENTS OF THE UNIVERSITY OF MINNESOTA, priority 2015, dated 2019)", "molecules": {"B1": {"name": "C46A: Moorella thermoacetica CAH with cysteine at residue 46 replaced with alanine (protein)", "chain": "MQKVEVFRIPTASPDDISGLATLIDSGKINPAEIVAILGKTEGNGAVNDFTRGFATQSLAMYLAEKLGISREEVVKKVAFIMSGGTEGVMTPHITVFVRKDVQEPAKPGKRLAVGVAFTRDFLPEELGRMEQVNEVARAVKEAMKDAQIDDPRDVHFVQIKCPLLTAERIEDAKRRGKDVVVNDTYKSMAYSRGASALGVALALGEISADKISNEAICHDWNLYSSVASTSAGVELLNDEIIVVGNSTNSASDLVIGHSVMKDAIDADAVRAALKDAGLKFDCCPPAEELAKIVNVLAKAEAASSGTVRGRRNTMLDDSDINHTRSARAVVNAVIASVVGDPMVYVSGGAEHQGPDGGGPIAVIARV"}, "B2": {"name": "C46S: Moorella thermoacetica CAH with cysteine at residue 46 replaced with serine (protein)", "chain": "B1 chain with A46S"}}, "key": {"[1]": {"experiment": "Inactivation of CAH by Michael addition", "format": "biochemical", "details": "30 uM enzyme, 350 uM N-ethylmaleimide", "procedure": "Inactivation of the WT and variant CAH from a Michael addition reaction was also investigated using N-ethylmaleimide. Specifically, the WT or C46A enzymes (30 uM) were incubated with 350 uM N-ethylmaleimide."}, "[2]": {"experiment": "Resistance of CAH to mercury (II) salt", "format": "biochemical", "details": "48 uM enzyme, 1.6 mM phenyl mercuric acetate, assayed after one minute", "procedure": "The effect of a common heavy metal, mercury, on the activity of WT and variant CAH was also tested. […] Specifically, mercury (II) salts were used to test resistance, which are known to be particularly damaging to proteins. The WT or C46A enzymes (48 uM) were incubated with 1.6 mM phenyl mercuric acetate; the WT CAH enzyme retained 1% activity (+/−13% error) (so it was 99% inactivated) while the C46A mutant enzyme retained 89% activity (+1-11%) (so it was completely resistant within experimental error) when assayed after one minute."}, "[3]": {"experiment": "Sensitivity of CAH to iodoacetamide", "format": "biochemical", "details": "30 uM CAH, 20 mM iodoacetamide", "procedure": "In addition to commonly used oxidants, the effect of a commonly used sulfhydryl reactive agent (iodoacetamide) was also tested on the activity of WT and variant CAH. It was reasoned that a sulfhydryl reactive compound might react with the cysteine sulfhydryl group of the wild-type protein to block substrate access to the active site much in the same way an oxidant could oxidize the cysteine sulfhydryl group and block active site access.\n(§1) To determine sensitivity of WT, C46A and C46S CAH to various oxidants or sulfhydryl reagents, purified protein (30 μM) was pre-incubated with or without the potential inhibitor, 8.5 mM hydrogen peroxide, 50 μM potassium permanganate, 22 μM (1 ppm) ozone or 20 mM iodoacetamide. At appropriate time points, aliquots of the protein samples were diluted 100 fold into a solution of 140 ppm cyanuric acid and incubated for 10 minutes before the cyanuric acid concentration was measured with the melamine turbidity assay (explained in previous document). The results are plotted as the log of the percent of untreated-protein activity as a function of treatment time."}, "[4]": {"experiment": "Cyanuric acid hydrolase activity (melamine turbidity assay)", "format": "biochemical", "details": "140 ppm cyanuric acid in phosphate buffered saline; 0.03 μM enzyme (0.12 μM for C46D, V, T)", "procedure": "To determine CAH activity, 0.03 μM enzyme was incubated with a 140 ppm cyanuric acid (CYA) solution in phosphate buffered saline (138 mM NaCl, 3 mM KCl, 10 mM Na2HPO4, 2 mM KH2PO4). For the WT protein and the C46A and C46S variants, fractions were removed every 5 minutes to assay CYA concentration using a modified melamine turbidity assay (Downes et al. 1984). An equal volume of melamine solution (2.5 mg/mL in water) was added to cyanuric acid samples and mixed thoroughly. The absorbance at 600 nm was read 2 minutes after mixing. For the severely impaired CAH proteins (C46D, V and T), 0.12 μM protein was used and fractions were removed every hour for CYA measurement. Specific activity (nmol min^−1 mg^−1) was calculated as the average of triplicate data at two time points."}, "[5]": {"experiment": "Circular dichroism thermal melting", "format": "physicochemical", "details": "CD at 220 nm, 25 μM protein, 55 to 90° C.", "procedure": "The circular dichroism (CD) measurements were performed on a Jasco J-815 spectrometer with 25 μM protein in 50 mM M Tris-HCl buffer, pH 7.2 in a 1 mm path length cell. For thermal melting, the changes in CD spectra at of the proteins were sampled at 220 nm every 1° C. during continuous heating the solutions from 55 to 90° C. at 1 degree per minute. Data were normalized to the initial reading at 55 C."}, "[6]": {"experiment": "Bleach sensitivity of CAH", "format": "biochemical", "details": "30 μM protein pre-incubated with 1 mM bleach", "procedure": "To determine bleach sensitivity of WT, C46A and C46S CAH, purified protein (30 μM) was pre-incubated with or without 1 mM bleach. At appropriate time points, aliquots of the protein samples were diluted 100 fold into a solution of 140 ppm cyanuric acid and incubated for 10 minutes before the cyanuric acid concentration was measured with the melamine turbidity assay. The results are plotted as the log of the percent of untreated-protein activity as a function of treatment time."}, "[7]": {"experiment": "Sensitivity of CAH to hydrogen peroxide", "format": "biochemical", "details": "30 μM CAH, 8.5 mM H2O2", "procedure": "as §1"}}, "note": "Positions count from the first letter of the chain named. In names and notes the source's numbering stands.", "data": [{"molecule": "B1", "values": [{"measurement": "Protection from inactivation by N-ethylmaleimide", "setting": "[1]", "value": "completely protected"}, {"measurement": "Activity retained", "setting": "[2]", "value": 89, "unit": "%"}, {"measurement": "Effect of iodoacetamide on activity", "setting": "[3]", "value": "not affected"}, {"measurement": "Specific activity", "setting": "[4]", "value": 10.03, "unit": "µmol/min/mg"}, {"measurement": "Thermal melting curve compared to WT", "setting": "[5]", "value": "very closely resemble the WT curve"}, {"measurement": "Resistance to inactivation by bleach", "setting": "[6]", "value": "largely resistant to inactivation by bleach"}, {"measurement": "Decrease of sensitivity to hydrogen peroxide versus wild-type", "setting": "[7]", "value": "over four-fold"}]}, {"molecule": "B2", "values": [{"measurement": "Specific activity", "setting": "[4]", "value": 6.972, "unit": "µmol/min/mg"}, {"measurement": "Thermal melting curve compared to WT", "setting": "[5]", "value": "very closely resemble the WT curve"}, {"measurement": "Resistance to inactivation by bleach", "setting": "[6]", "value": "largely resistant to inactivation by bleach"}, {"measurement": "Decrease of sensitivity to hydrogen peroxide versus wild-type", "setting": "[7]", "value": "over four-fold"}]}]}
